In patent publication US20190011465A1 one finds reactivity and Kd data, which are given here for one substance.

One experiment has as its target D monomer (UniProt P02671). As to the kind of experiment: competitive inhibition ELISA: HRP-B4 pre-incubated with soluble antigen, then added to a D-dimer-coated plate. In general terms: An ELISA detects its analyte on a solid surface through an enzyme-linked reagent.
Another experiment addresses human D-dimer (human) (UniProt P02671). Described as above.

As a reminder, the Kd is the equilibrium constant for the complex coming apart. High values mean weaker binding, low ones tighter binding. In turn, monoclonal antibody B4 registered a reactivity with D monomer of 5 µM. The same substance gave a Kd with human D-dimer (human) of 0.98 nM.
